Measurements from patent US20140179896A1 (published 2014).
Positions count from the first letter of the chain named.

B1: K10 (designed binder)
chain: EVVAATPTSLLISWRHPHFPTRYYRITYGETGGNSPVQEFTVPLQPPTATISGLKPGVDYTITGYAVTTGPNDRLLFVPISINYRT
notes: Del 1-8
B2: K11 (designed binder)
chain: B1 chain with T69Q, G70A, L75V, F77Y, V78T
notes: Del 1-8
B3: K5 (designed binder)
chain: B1 chain with T69M, R74N, L75E, F77L, V78T
notes: Del 1-8
B4: K6 (designed binder)
chain: B1 chain with T69D, P71K, N72D, D73G, L75V, F77L, V78T
notes: Del 1-8
B5: K9 (designed binder)
chain: B1 chain with T69F, P71L, N72Y, D73G, R74K, L75E, F77L, V78I
notes: Del 1-8
B6: K8 (designed binder)
chain: B1 chain with T69V, G70T, P71H, D73G, R74H, L75P, F77M, V78T
notes: Del 1-8; 279 used
B7: K1 (designed binder)
chain: B1 chain with T69M, P71L, N72Y, D73G, R74H, L75E, F77L, V78T
notes: Del 1-8
B8: K3 (designed binder)
chain: B1 chain with T69A, P71W, N72D, R74H, L75E, V78I
notes: Del 1-8
B9: K7 (designed binder)
chain: B1 chain with T69S, P71H, R74H, L75M, F77M, V78I
notes: Del 1-8
B10: K4 (designed binder)
chain: B1 chain with T69A, P71Y, R74Q, L75I, F77M, V78T
notes: Del 1-8
B11: K2 (designed binder)
chain: B1 chain with T69D, P71E, D73G, R74Q, L75F, F77L
notes: Del 1-8
B12: K14 (designed binder)
chain: B1 chain with T69R, G70E, P71E, R74H, L75E, F77L, V78I
notes: Del 1-8 10Fn3 clone; Flag tag of the assay form not included
B13: K4 (designed binder)
chain: B1 chain with T69A, P71Y, R74Q, L75I, F77M, V78T
notes: as for B12
B14: K7 (designed binder)
chain: B1 chain with T69S, P71H, R74H, L75M, F77M, V78I
notes: as for B12
B15: K13 (designed binder)
chain: B1 chain with T69L, G70A, P71L, N72K, D73G, R74H, L75E, F77L, V78T
notes: as for B12
B16: K15 (designed binder)
chain: B1 chain with T69E, G70V, P71H, N72H, L75E, L76I, F77K, V78T
notes: as for B12
B17: K9 (designed binder)
chain: B1 chain with T69F, P71L, N72Y, D73G, R74K, L75E, F77L, V78I
notes: as for B12
B18: K8 (designed binder)
chain: B1 chain with T69V, G70T, P71H, D73G, R74H, L75P, F77M, V78T
notes: as for B12
B19: K2 (designed binder)
chain: B1 chain with T69D, P71E, D73G, R74Q, L75F, F77L
notes: as for B12
B20: K11 (designed binder)
chain: B1 chain with T69Q, G70A, L75V, F77Y, V78T
notes: as for B12
B21: K12 (designed binder)
chain: B1 chain with T69D, G70V, P71Y, R74H, L75E, L76I, F77K, V78T
notes: as for B12
B22: K5 (designed binder)
chain: B1 chain with T69M, R74N, L75E, F77L, V78T
notes: as for B12
B23: K10 (designed binder)
chain: B1 chain
notes: as for B12
B24: K6 (designed binder)
chain: B1 chain with T69D, P71K, N72D, D73G, L75V, F77L, V78T
notes: as for B12
B25: K1 (designed binder)
chain: B1 chain with T69M, P71L, N72Y, D73G, R74H, L75E, F77L, V78T
notes: Del 1-8 10Fn3 clone; tag not included
B26: K3 (designed binder)
chain: B1 chain with T69A, P71W, N72D, R74H, L75E, V78I
notes: as for B12
B27: E8 (designed binder)
chain: B1 chain with T69E, G70E, P71W, D73G, L75V, F77M, V78T
notes: Del 1-8 10Fn3 clone; Flag tag of the radioactive-assay form not included
B28: E27 (designed binder)
chain: B1 chain with T69V, G70E, P71R, D73G, R74H, L75T, F77M, V78T
notes: as for B27
B29: E2 (designed binder)
chain: B1 chain with T69D, F77N, V78I
notes: as for B27
B30: E15 (designed binder)
chain: B1 chain with T69L, G70E, D73G, L75Y, F77M
notes: as for B27
B31: E22 (designed binder)
chain: B1 chain with T69L, P71R, L75E, F77L, V78T
notes: as for B27
B32: E17 (designed binder)
chain: B1 chain with T69V, G70E, P71E, D73G, L75V, F77N, V78T
notes: as for B27
B33: E24 (designed binder)
chain: B1 chain with T69V, G70E, P71R, L75V, V78T
notes: as for B27
B34: E14 (designed binder)
chain: B1 chain with T69L, G70E, P71R, D73G, R74Q, L75V, V78T
notes: as for B27
B35: E10 (designed binder)
chain: B1 chain with T69E, P71R, D73G, L75E, V78I
notes: Del 1-8 10Fn3 clone; Flag tag not included
B36: E21 (designed binder)
chain: B1 chain with T69W, P71Y, N72K, R74H, L75E, F77L, V78I
notes: as for B27
B37: E12 (designed binder)
chain: B1 chain with T69F, G70A, P71R, N72D, D73G, R74H, L75E, L76I, F77L, V78T
notes: as for B27
B38: E16 (designed binder)
chain: B1 chain with T69V, G70E, P71E, D73G, L75Q, F77M, V78T
notes: as for B27
B39: E13 (designed binder)
chain: B1 chain with T69L, G70E, P71Q, D73G, L75E, F77M, V78T
notes: as for B27
B40: E20 (designed binder)
chain: B1 chain with T69V, G70E, P71R, D73G, R74Q, L75V, F77Y, V78T
notes: as for B27
B41: E23 (designed binder)
chain: EVVAATPTSLLISWRHHPHFPTRYYRITYGETGGNSPVQEFTVPLQPPTATISGLKPGVDYTITGYAVTVHWNGRELMTPISINYRT
notes: as for B35

target: T1, human vascular endothelial growth factor receptor-2 Fc chimera (KDR-Fc) (human, UniProt P35968 20-764); assay: radioactive equilibrium binding, KDR-Fc
T1 construct: range 1-764; also called human VEGFR-2; VEGF-R2-Fc; not shown: human IgG1 Fc
Experimental: (§1) To prepare ³⁵S-labeled binding proteins for analysis, mRNA was prepared as described above for RNA-protein fusion production but the linker ligation step was omitted. The mRNA was expressed using rabbit reticulocyte lysate translation kit (Ambion) in the presence of ³⁵S-labeled Met at 30° C. for 1 hour. Expressed protein was purified on M2-agarose Flag beads (Sigma) as described above. This procedure produced the encoded protein without the nucleic acid tail. In a direct binding assay, VEGF-R2-Fc fusions in concentrations ranging from 0 to 200 nM were added to a constant concentration of the purified protein (0.2 or 0.5 nM) and incubated at 30° C. for 1 hour in buffer B. The receptor-binder complexes were captured using Protein A magnetic beads for another 10 minutes at room temperature using a Kingfisher™ The beads were washed with six reaction volumes of buffer B. The protein was eluted from the beads with 100 μL of 0.1 M KOH. […] of the reaction mixture and elution were dried onto a LumaPlate-96 (Packard) and the amount of ³⁵S on the plate was measured using a TopCount NXT instrument (Packard). The amount of fibronectin-based scaffold protein bound to the target was estimated as a percent of radioactivity eluted from Protein A magnetic beads compare to radioactivity in the reaction mixture. Nonspecific binding of fibronectin-based scaffold proteins to the beads was determined by measuring binding in the absence of KDR-Fc and represented less than 1-2% of the input. Specific binding was obtained through subtraction of nonspecific binding from total binding. Data was analyzed using the GraphPad Prizm software (GraphPad Software, Inc, San Diego, Calif.), fitted using a one site, non-linear binding equation.
T1 sequence (P35968 20-764 limits assumed, change not shown, form in doubt): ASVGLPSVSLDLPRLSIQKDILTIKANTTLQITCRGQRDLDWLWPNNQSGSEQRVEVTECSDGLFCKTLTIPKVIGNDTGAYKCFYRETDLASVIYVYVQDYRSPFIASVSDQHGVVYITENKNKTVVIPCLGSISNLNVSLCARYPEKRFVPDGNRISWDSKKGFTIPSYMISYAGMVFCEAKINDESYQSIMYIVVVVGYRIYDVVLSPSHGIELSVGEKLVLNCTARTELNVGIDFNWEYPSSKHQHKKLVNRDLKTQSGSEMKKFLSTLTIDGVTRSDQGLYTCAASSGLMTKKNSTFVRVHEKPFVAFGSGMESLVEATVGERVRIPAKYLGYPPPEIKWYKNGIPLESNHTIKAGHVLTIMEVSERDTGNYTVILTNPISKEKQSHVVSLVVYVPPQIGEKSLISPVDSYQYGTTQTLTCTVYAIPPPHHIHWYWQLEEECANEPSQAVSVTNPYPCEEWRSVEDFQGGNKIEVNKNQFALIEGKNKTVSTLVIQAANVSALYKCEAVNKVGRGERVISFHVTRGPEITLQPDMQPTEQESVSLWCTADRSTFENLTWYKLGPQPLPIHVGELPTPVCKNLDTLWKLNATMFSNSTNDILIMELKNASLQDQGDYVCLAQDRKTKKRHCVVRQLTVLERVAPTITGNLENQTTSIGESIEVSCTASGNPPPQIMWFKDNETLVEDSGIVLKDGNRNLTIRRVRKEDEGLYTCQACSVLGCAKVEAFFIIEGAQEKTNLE

Row | Kd | Binder
1 | 0.57 nM | B1
2 | 1.16 nM | B2
3 | 1.54 nM | B3
4 | 0.93 nM | B4
5 | 1.8 nM | B5
6 | 3.3 nM | B6
7 | 0.55 nM | B7
8 | 1.15 nM | B8
9 | 2.2 nM | B9
10 | 1.95 nM | B10
11 | 1.19 nM | B11

target: T1, human vascular endothelial growth …; assay: radioactive equilibrium binding, 1 nM KDR-Fc
Procedure, shortened: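 Percent of input bound is specific binding: total ³⁵S eluted from Protein A beads minus nonspecific bead binding without receptor. The binder (0.2 or 0.5 nM) was incubated with titrated VEGF-R2-Fc in buffer B, 30° C, 1 h.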

Row | Binding to 1 nM KDR, % | Binder
12 | 33% | B1
13 | 24% | B2
14 | 47% | B3
15 | 27% | B4
16 | 35% | B5
17 | 18% | B6
18 | 48% | B7
19 | 45% | B8
20 | 40% | B9
21 | 38% | B10
22 | 48% | B11

target: T2, human vascular endothelial growth factor receptor-2 Fc chimera (KDR-Fc) (human, UniProt P35968 20-764); assay: radioactive equilibrium binding (assay not given)
T2 construct: range 1-764; also called human VEGFR-2; hKDR; not shown: human IgG1 Fc
Experimental: as §1
T2 sequence (P35968 20-764 limits assumed, change not shown, form in doubt): as above

Row | Kd | Binder
23 | 0.57 nM | B12
24 | 1.95 nM | B13
25 | 2.2 nM | B14
26 | 0.58 nM | B15
27 | 0.35 nM | B16
28 | 1.8 nM | B17
29 | 3.3 nM | B18
30 | 1.19 nM | B19
31 | 1.16 nM | B20
32 | 0.62 nM | B21
33 | 1.54 nM | B22
34 | 0.57 nM | B23
35 | 0.93 nM | B24
36 | 0.55 nM | B25
37 | 1.15 nM | B26

target: T2, human vascular endothelial growth …; assay: binding to 1 nM KDR-Fc, % of input; radioactive equilibrium binding (assay not given)
Experimental: as §1

Row | Binding to 1 nM KDR, % | Binder
38 | 51% | B27
39 | 20% | B12
40 | 38% | B13
41 | 37% | B28
42 | 40% | B14
43 | 17% | B15
44 | 25% | B16
45 | 53% | B29
46 | 52% | B30
47 | 45% | B31
48 | 35% | B17
49 | 32% | B32
50 | 18% | B18
51 | 48% | B19
52 | 24% | B33
53 | 33% | B34
54 | 53% | B35
55 | 24% | B20
56 | 29% | B21
57 | 47% | B22
58 | 47% | B36
59 | 36% | B37
60 | 33% | B23
61 | 35% | B38
62 | 38% | B39
63 | 27% | B24
64 | 43% | B40
65 | 48% | B25
66 | 45% | B26
67 | 36% | B41

target: T3, mouse vascular endothelial growth factor receptor-2 Fc chimera (Flk-1-Fc) (mouse, UniProt P35918 20-762); assay: binding to 1 nM Flk-1-Fc, % of input; radioactive equilibrium binding (assay not given)
T3 construct: Purchased from R&D Systems; also called mouse VEGF-R2; not shown: Fc part of the purchased chimera
Experimental: as §1

T3 sequence (P35918 20-762, change not shown): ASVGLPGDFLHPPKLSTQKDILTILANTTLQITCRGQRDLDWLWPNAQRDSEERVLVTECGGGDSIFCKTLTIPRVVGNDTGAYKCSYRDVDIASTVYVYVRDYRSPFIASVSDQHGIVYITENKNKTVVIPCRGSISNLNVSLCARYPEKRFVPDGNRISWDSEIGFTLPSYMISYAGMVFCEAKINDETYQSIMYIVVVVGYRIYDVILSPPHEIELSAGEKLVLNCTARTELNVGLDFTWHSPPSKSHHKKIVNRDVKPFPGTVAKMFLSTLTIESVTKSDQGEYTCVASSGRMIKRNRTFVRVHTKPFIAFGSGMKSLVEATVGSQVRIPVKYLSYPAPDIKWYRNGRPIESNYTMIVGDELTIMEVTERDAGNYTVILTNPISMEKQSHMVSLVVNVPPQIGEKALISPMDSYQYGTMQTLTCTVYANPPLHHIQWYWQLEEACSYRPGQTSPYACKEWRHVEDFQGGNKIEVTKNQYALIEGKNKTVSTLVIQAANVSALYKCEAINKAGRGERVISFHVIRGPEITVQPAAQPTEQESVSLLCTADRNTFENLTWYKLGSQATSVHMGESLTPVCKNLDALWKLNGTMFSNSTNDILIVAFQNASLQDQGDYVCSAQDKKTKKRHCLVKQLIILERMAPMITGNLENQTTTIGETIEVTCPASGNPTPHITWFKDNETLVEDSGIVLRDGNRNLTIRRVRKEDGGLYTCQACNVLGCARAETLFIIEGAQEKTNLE

Row | Binding to 1 nM FLK, % | Binder
68 | 10% | B27
69 | 9% | B28
70 | 10% | B32
71 | 29% | B33
72 | 11% | B34
73 | 0% | B38
74 | 11% | B40
75 | 7% | B41
